In patent publication US20050049402A1:

What was measured:
[1] = molecular target: transmembrane mutant TNFα expressed on the surface of CHO cells (UniProt P01375); test: cell-based or functional assay
[2] = molecular target: human TNFα (Tumor Necrosis Factor-alpha), soluble (human) (UniProt P01375); test: cell-based or functional assay
[3] = molecular target: monkey (cynomolgous macaque) GST-TNFα (cynomolgous macaque) (UniProt P79337); test: ELISA, plate coated with 2 µg/ml monkey (cynomolgus macaque) GST-TNFα, HRP goat anti-human IgG detection
monkey (cynomolgous macaque) GST-TNFα (cynomolgous macaque), sequence (P79337 77-233): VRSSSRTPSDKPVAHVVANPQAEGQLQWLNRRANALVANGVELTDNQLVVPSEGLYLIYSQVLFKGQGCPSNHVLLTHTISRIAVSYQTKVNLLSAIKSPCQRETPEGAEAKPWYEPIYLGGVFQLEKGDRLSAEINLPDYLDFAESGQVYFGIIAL

human TNFα (Tumor Necrosis Factor-alpha), soluble (human), sequence (P01375 77-233): as the sequence (P79337 77-233) above, with V37L, T44R, N72T, L138R counted along it
transmembrane mutant TNFα expressed on the surface of CHO cells, sequence (P01375 whole entry, change not shown, form in doubt): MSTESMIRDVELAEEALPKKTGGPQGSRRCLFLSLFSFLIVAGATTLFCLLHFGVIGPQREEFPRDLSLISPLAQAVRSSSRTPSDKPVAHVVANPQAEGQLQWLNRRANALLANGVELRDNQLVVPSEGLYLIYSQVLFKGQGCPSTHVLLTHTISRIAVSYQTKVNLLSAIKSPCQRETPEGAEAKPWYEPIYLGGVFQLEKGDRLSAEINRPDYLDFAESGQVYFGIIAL

ADCC (%) [1] [%] | CDC (%) [1] [%] | EC50 (read off the curve) [3] [ng/mL] | Substance | IC50 1 hr Pre-incubation, TNF induced apoptosis in MCF-7 cells [2] [nM] | IC50 18 hr Pre-incubation, TNF induced apoptosis in MCF-7 cells [2] [nM] | In vivo Potency (IC50), ALT, hTNFα/D-GalN hepatic injury in mice [2] [nM] | In vivo Potency (IC50), human TNFα-induced IL-6 in mice [2] [nM]
2 | 2 |  | irrelevant human IgG1 control antibody |  |  |  | 
 |  | 3 | Etanercept (Fc fusion) | 0.0034 | 0.0022 | 27 | 27
